Consider twelve molecules from article PMC11574045, “A cofactor-induced repressive type of transcription factor condensation can be induced by synthetic peptides to suppress tumorigenesis” (The EMBO Journal, 2024).

This assay concerns HEK293FT cells transfected with TF library. The assay can be described thus: Screening of TF condensates based on fluorescent puncta. It is filed as cell-based. The note with it: Figure 1B numerical data; TF library screen, one value per transcriptional factor. Summed up: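 TF plasmids (final 1.6 μg/ml) reverse-transfected with PEI (4.8 μg/ml) into HEK293FT cells; after 60 h, cells cultured ±glucose for 12 h, fixed in 4% PFA and immunostained for Flag or GAL4 tags with Alexa 488 secondaries. Puncta scored by automated imaging of 50 random fields per well.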

B1: MADH4 (protein, UniProt Q13485 1-552, looked up)
Mothers against …: MDNMSITNTPTSNDACLSIVHSLMCHRQGGESETFAKRAIESLVKKLKEKKDELDSLITAITTNGAHPSKCVTIQRTLDGRLQVAGRKGFPHVIYARLWRWPDLHKNELKHVKYCQYAFDLKCDSVCVNPYHYERVVSPGIDLSGLTLQSNAPSSMMVKDEYVHDFEGQPSLSTEGHSIQTIQHPPSNRASTETYSTPALLAPSESNATSTANFPNIPVASTSQPASILGGSHSEGLLQIASGPQPGQQQNGFTGQPATYHHNSTTTWTGSRTAPYTPNLPHHQNGHLQHHPPMPPHPGHYWPVHNELAFQPPISNHPAPEYWCSIAYFEMDVQVGETFKVPSSCPIVTVDGYVDPSGGDRFCLGQLSNVHRTEAIERARLHIGKGVQLECKGEGDVWVRCLSDHAVFVQSYYLDREAGRAPGDAVHKIYPSAYIKVFDLRQCHRQMQQQAATAQAAAAAQAAAVAGNIPGPGSVGGIAPAISLSAAAGIGVDDLRRLCILRMSFVKGWGPDYPRQSIKETPCWIEIHLHRALQLLDEVLHTMPIADPQPLD
In the case of B1, the “Z score of condensed fraction” value was -0.6861.

B2: MAEL (protein, UniProt Q96JY0 1-434, looked up)
Protein maelstrom homolog: MPNRKASRNAYYFFVQEKIPELRRRGLPVARVADAIPYCSSDWALLREEEKEKYAEMAREWRAAQGKDPGPSEKQKPVFTPLRRPGMLVPKQNVSPPDMSALSLKGDQALLGGIFYFLNIFSHGELPPHCEQRFLPCEIGCVKYSLQEGIMADFHSFINPGEIPRGFRFHCQAASDSSHKIPISNFERGHNQATVLQNLYRFIHPNPGNWPPIYCKSDDRTRVNWCLKHMAKASEIRQDLQLLTVEDLVVGIYQQKFLKEPSKTWIRSLLDVAMWDYSSNTRCKWHEENDILFCALAVCKKIAYCISNSLATLFGIQLTEAHVPLQDYEASNSVTPKMVVLDAGRYQKLRVGSSGFSHFNSSNEEQRSNTPIGDYPSRAKISGQNSSVRGRGITRLLESISNSSSNIHKFSNCDTSLSPYMSQKDGYKSFSSLS
In the case of B2, the “Z score of condensed fraction” value was -0.816.

B3: MADH1 (protein, UniProt Q15797 1-465, looked up)
Mothers against …: MNVTSLFSFTSPAVKRLLGWKQGDEEEKWAEKAVDALVKKLKKKKGAMEELEKALSCPGQPSNCVTIPRSLDGRLQVSHRKGLPHVIYCRVWRWPDLQSHHELKPLECCEFPFGSKQKEVCINPYHYKRVESPVLPPVLVPRHSEYNPQHSLLAQFRNLGQNEPHMPLNATFPDSFQQPNSHPFPHSPNSSYPNSPGSSSSTYPHSPTSSDPGSPFQMPADTPPPAYLPPEDPMTQDGSQPMDTNMMAPPLPSEINRGDVQAVAYEEPKHWCSIVYYELNNRVGEAFHASSTSVLVDGFTDPSNNKNRFCLGLLSNVNRNSTIENTRRHIGKGVHLYYVGGEVYAECLSDSSIFVQSRNCNYHHGFHPTTVCKIPSGCSLKIFNNQEFAQLLAQSVNHGFETVYELTKMCTIRMSFVKGWGAEYHRQDVTSTPCWIEIHLHGPLQWLDKVLTQMGSPHNPISSVS
On to B3, for which the “Z score of condensed fraction” value is listed as -0.2284.

B4: MEF2A (protein, UniProt Q02078 1-507, looked up)
Myocyte-specific enhancer …: MGRKKIQITRIMDERNRQVTFTKRKFGLMKKAYELSVLCDCEIALIIFNSSNKLFQYASTDMDKVLLKYTEYNEPHESRTNSDIVEALNKKEHRGCDSPDPDTSYVLTPHTEEKYKKINEEFDNMMRNHKIAPGLPPQNFSMSVTVPVTSPNALSYTNPGSSLVSPSLAASSTLTDSSMLSPPQTTLHRNVSPGAPQRPPSTGNAGGMLSTTDLTVPNGAGSSPVGNGFVNSRASPNLIGATGANSLGKVMPTKSPPPPGGGNLGMNSRKPDLRVVIPPSSKGMMPPLSEEEELELNTQRISSSQATQPLATPVVSVTTPSLPPQGLVYSAMPTAYNTDYSLTSADLSALQGFNSPGMLSLGQVSAWQQHHLGQAALSSLVAGGQLSQGSNLSINTNQNISIKSEPISPPRDRMTPSGFQQQQQQQQQQQPPPPPQPQPQPPQPQPRQEMGRSPVDSLSSSSSSYDGSDREDPRGDFHSPIVLGRPPNTEDRESPSVKRMRMDAWVT
In the case of B4, the “Z score of condensed fraction” value is listed as -0.6589.

B5: MDM4 (protein, UniProt O15151 1-490, looked up)
Protein Mdm4: MTSFSTSAQCSTSDSACRISPGQINQVRPKLPLLKILHAAGAQGEMFTVKEVMHYLGQYIMVKQLYDQQEQHMVYCGGDLLGELLGRQSFSVKDPSPLYDMLRKNLVTLATATTDAAQTLALAQDHSMDIPSQDQLKQSAEESSTSRKRTTEDDIPTLPTSEHKCIHSREDEDLIENLAQDETSRLDLGFEEWDVAGLPWWFLGNLRSNYTPRSNGSTDLQTNQDVGTAIVSDTTDDLWFLNESVSEQLGVGIKVEAADTEQTSEEVGKVSDKKVIEVGKNDDLEDSKSLSDDTDVEVTSEDEWQCTECKKFNSPSKRYCFRCWALRKDWYSDCSKLTHSLSTSDITAIPEKENEGNDVPDCRRTISAPVVRPKDAYIKKENSKLFDPCNSVEFLDLAHSSESQETISSMGEQLDNLSEQRTDTENMEDCQNLLKPCSLCEKRPRDGNIIHGRTGHLVTCFHCARRLKKAGASCPICKKEIQLVIKVFIA
With B5, the “Z score of condensed fraction” value stood at 2.3.

B6: ASCL3 (protein, UniProt Q9NQ33 1-181, looked up)
Achaete-scute homolog 3: MMDNRGNSSLPDKLPIFPDSARLPLTRSFYLEPMVTFHVHPEAPVSSPYSEELPRLPFPSDSLILGNYSEPCPFSFPMPYPNYRGCEYSYGPAFTRKRNERERQRVKCVNEGYAQLRHHLPEEYLEKRLSKVETLRAAIKYINYLQSLLYPDKAETKNNPGKVSSMIATTSHHADPMFRIV
Turning to B6, the “Z score of condensed fraction” value is recorded as 0.02457.

B7: MESP1 (protein, UniProt Q9BRJ9 1-268, looked up)
Mesoderm posterior protein 1: MAQPLCPPLSESWMLSAAWGPTRRPPPSDKDCGRSLVSSPDSWGSTPADSPVASPARPGTLRDPRAPSVGRRGARSSRLGSGQRQSASEREKLRMRTLARALHELRRFLPPSVAPAGQSLTKIETLRLAIRYIGHLSAVLGLSEESLQRRCRQRGDAGSPRGCPLCPDDCPAQMQTRTQAEGQGQGRGLGLVSAVRAGASWGSPPACPGARAAPEPRDPPALFAEAACPEGQAMEPSPPSPLLPGDVLALLETWMPLSPLEWLPEEPK
B7: the “Z score of condensed fraction” value is -1.02.

B8: MBLR (protein, UniProt Q9BYE7 1-350, looked up)
Polycomb group RING finger …: MEGVAVVTAGSVGAAKTEGAAALPPPPPVSPPALTPAPAAGEEGPAPLSETGAPGCSGSRPPELEPERSLGRFRGRFEDEDEELEEEEELEEEEEEEEEDMSHFSLRLEGGRQDSEDEEERLINLSELTPYILCSICKGYLIDATTITECLHTFCKSCIVRHFYYSNRCPKCNIVVHQTQPLYNIRLDRQLQDIVYKLVINLEEREKKQMHDFYKERGLEVPKPAVPQPVPSSKGRSKKVLESVFRIPPELDMSLLLEFIGANEGTGHFKPLEKKFVRVSGEATIGHVEKFLRRKMGLDPACQVDIICGDHLLEQYQTLREIRRAIGDAAMQDGLLVLHYGLVVSPLKIT
With B8, the “Z score of condensed fraction” value is recorded as 0.4702.

B9: MDFI (protein, UniProt Q99750 1-246, looked up)
MyoD family inhibitor: MYQVSGQRPSGCDAPYGAPSAAPGPAQTLSLLPGLEVVTGSTHPAEAAPEEGSLEEAATPMPQGNGPGIPQGLDSTDLDVPTEAVTCQPQGNPLGCTPLLPNDSGHPSELGGTRRAGNGALGGPKAHRKLQTHPSLASQGSKKSKSSSKSTTSQIPLQAQEDCCVHCILSCLFCEFLTLCNIVLDCATCGSCSSEDSCLCCCCCGSGECADCDLPCDLDCGILDACCESADCLEICMECCGLCFSS
In the case of B9, the “Z score of condensed fraction” value came to 0.558.

B10: ASCL4 (protein, UniProt Q6XD76 1-172, looked up)
Achaete-scute homolog 4: METRKPAERLALPYSLRTAPLGVPGTLPGLPRRDPLRVALRLDAACWEWARSGCARGWQYLPVPLDSAFEPAFLRKRNERERQRVRCVNEGYARLRDHLPRELADKRLSKVETLRAAIDYIKHLQELLERQAWGLEGAAGAVPQRRAECNSDGESKASSAPSPSSEPEEGGS
Consider B10, for which the “Z score of condensed fraction” value worked out at 1.17.

B11: MEIS3 (protein, UniProt Q99687 1-375, looked up)
Homeobox protein Meis3: MARRYDELPHYPGIVDGPAALASFPETVPAVPGPYGPHRPPQPLPPGLDSDGLKREKDEIYGHPLFPLLALVFEKCELATCSPRDGAGAGLGTPPGGDVCSSDSFNEDIAAFAKQVRSERPLFSSNPELDNLMIQAIQVLRFHLLELEKVHDLCDNFCHRYITCLKGKMPIDLVIEDRDGGCREDFEDYPASCPSLPDQNNMWIRDHEDSGSVHLGTPGPSSGGLASQSGDNSSDQGDGLDTSVASPSSGGEDEDLDQERRRNKKRGIFPKVATNIMRAWLFQHLSHPYPSEEQKKQLAQDTGLTILQVNNWFINARRRIVQPMIDQSNRTGQGAAFSPEGQPIGGYTETQPHVAVRPPGSVGMSLNLEGEWHYL
Take B11: the “Z score of condensed fraction” value is recorded as 1.7837.

B12: MAGED1 (protein, UniProt Q9Y5V3 1-778, looked up)
Melanoma-associated antigen D1: MAQKMDCGAGLLGFQAEASVEDSALLMQTLMEAIQISEAPPTNQATAAASPQSSQPPTANEMADIQVSAAAARPKSAFKVQNATTKGPNGVYDFSQAHNAKDVPNTQPKAAFKSQNATPKGPNAAYDFSQAATTGELAANKSEMAFKAQNATTKVGPNATYNFSQSLNANDLANSRPKTPFKAWNDTTKAPTADTQTQNVNQAKMATSQADIETDPGISEPDGATAQTSADGSQAQNLESRTIIRGKRTRKINNLNVEENSSGDQRRAPLAAGTWRSAPVPVTTQNPPGAPPNVLWQTPLAWQNPSGWQNQTARQTPPARQSPPARQTPPAWQNPVAWQNPVIWPNPVIWQNPVIWPNPIVWPGPVVWPNPLAWQNPPGWQTPPGWQTPPGWQGPPDWQGPPDWPLPPDWPLPPDWPLPTDWPLPPDWIPADWPIPPDWQNLRPSPNLRPSPNSRASQNPGAAQPRDVALLQERANKLVKYLMLKDYTKVPIKRSEMLRDIIREYTDVYPEIIERACFVLEKKFGIQLKEIDKEEHLYILISTPESLAGILGTTKDTPKLGLLLVILGVIFMNGNRASEAVLWEALRKMGLRPGVRHPLLGDLRKLLTYEFVKQKYLDYRRVPNSNPPEYEFLWGLRSYHETSKMKVLRFIAEVQKRDPRDWTAQFMEAADEALDALDAAAAEAEARAEARTRMGIGDEAVSGPWSWDDIEFELLTWDEEGDFGDPWSRIPFTFWARYHQNARSRFPQTFAGPIIGPGGTASANFAANFGAIGFFWVE
Regarding B12, the “Z score of condensed fraction” value is listed as -0.7984.
